These results are taken from patent US20180142284, “MULTIPLEX ANALYSIS OF GENE EXPRESSION IN INDIVIDUAL LIVING CELLS” (THE GENERAL HOSPITAL CORPORATION, published 2018).

The target of series [1] is PKR dsRBD (MAGIC factor), Alexa Fluor 488-labeled, not affinity purified (Homo sapiens) (UniProt P19525). The experiment in a line: pulldown. The following applies: only 4% of labeled protein able to bind dsRNA.
Series [2] concerns the target T1, PKR dsRBD (MAGIC factor), Alexa Fluor 488-labeled, affinity purified on dsRNA-agarose (Homo sapiens, UniProt P19525 SEQ:22-205).
T1 chain: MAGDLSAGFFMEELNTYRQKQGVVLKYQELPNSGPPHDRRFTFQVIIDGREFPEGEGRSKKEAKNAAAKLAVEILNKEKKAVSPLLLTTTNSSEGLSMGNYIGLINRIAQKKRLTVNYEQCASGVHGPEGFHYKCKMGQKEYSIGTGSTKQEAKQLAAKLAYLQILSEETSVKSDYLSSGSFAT
The experiment in a line: EMSA; Kd value only in figure; about 30-fold higher affinity than unpurified labeled protein. The following applies: tags: N-terminal His6; Alexa Fluor 488 on primary amines; label: Alexa Fluor 647. The text has this:
(§1) MAGIC factor was fluorescently-labeled with Alexa Fluor 488 and then reacted with dsRNA-coupled agarose beads to separate binding, functional protein (eluate) from non-binding, non-functional protein (flow and wash fractions). […] Unlabeled and unpurified fluorescent MAGIC factor and affinity purified fluorescent MAGIC factor were reacted with Alexa Fluor 647-labeled dsRNA and ssRNA and run on a native gel. The gel was visualized in the RNA channel (Ex. 633 nm/Em. 670/30 nm BP), protein channel (Ex. 488 nm/Em. 526 nm SP) and FRET channel (Ex. 488 nm/Em. 670/30nm). […] The dashed lines represent the cutoff after which increasing concentrations of only unpurified MAGIC factor were reacted with dsRNA.

Series [3] addresses T1, PKR dsRBD (MAGIC factor), Alexa Fluor …. The experiment in a line: EMSA; stated to bind specifically to dsRNA; gel result only in figure. The note with it: tags: N-terminal His6; Alexa Fluor 488 on primary amines; label: Alexa Fluor 647.
Source text: as §1
On the technique in general: A gel shift assay detects complexes by their altered migration in electrophoresis.

dsRNA coupled to agarose beads gave a binding signal in series [1] of 4%.

B1: EMSA dsRNA (dsRNA)
RNA 1: GAGUCCUUCCACGAUACC
RNA 2: GGUAUCGUGGAAGGACUC
modifications: aminoallyl-uridine in labeled strand; sequence printed with T, transcribed as RNA
For B1, the binding result in series [2] is reported as “binds”.

As for GAGUCCUUCCACGAUACC (ssRNA, aminoallyl-uridine; sequence printed with T, transcribed as RNA) [EMSA ssRNA], in series [3], the binding result is reported as “no binding”.
